Measured values: article PMC5341729 (Molecular Biology of the Cell, 2017)

B1: CHD4(561-936)^PREY (domain or fragment)
chain: QVMFRNYQRKNDMDEPPSGDFGGDEEKSRKRKNKDPKFAEMEERFYRYGIKPEWMMIHRILNHSVDKKGHVHYLIKWRDLPYDQASWESEDVEIQDYDLFKQSYWNHRELMRGEEGRPGKKLKKVKLRKLERPPETPTVDPTVKYERQPEYLDATGGTLHPYQMEGLNWLRFSWAQGTDTILADEMGLGKTVQTAVFLYSLYKEGHSKGPFLVSAPLSTIINWEREFEMWAPDMYVVTYVGDKDSRAIIRENEFSFEDNAIRGGKKASRMKKEASVKFHVLLTSYELITIDMAILGSIDWACLIVDEAHRLKNNQSKFFRVLNGYSLQHKLLLTGTPLQNNLEELFHLLNFLTPERFHNLEGFLEEFADIAKEDQI
B2: mCherry-MYRIP (MYO7A-Rab interacting protein), MYRIP^PREY (natural protein)
chain: MGRKLDLSGLTDDETEHVLQVVQRDFNLRKKEEERLSELKQKLDEEGSKCSILSKHQQFVEHCCMRCCSPFTFLVNTKRQCGDCKFNVCKSCCSYQKHEKAWVCCVCQQARLLRAQSLEWFYNNVKSRFKRFGSAKVLKNLYRKHRLESGACFDILGGSLFESNLENEGSISGSDSTFYRQSEGHSVMDTLAVALRVAEEAIEEAISKAEAYGDSLDKQNEASYLRDHKEELTEELATTILQKIIRKQKSKSEQQVEEEPGWPHPQSCSTKVADEGTSASPGGYRAPAALWRSQSAFSITGEEALKTPPVEAPSRQPRDQGQHPRAESALPSWKSVDRLDETNLAPVLQSPDGNWVALKDGAPPPTRLLAKPKSGTFQALEVASSVASAYDEMGSDSEEDFDWSEALSKLCPRSRALPRNPQPQPTQAQSSDQGPIAASPSSALSPNPEAMCSDSETSSAGSSREVGHQARLSWLQRKAPRNPAAEKMRLHGELDVNFNPQLASRETSDSSEPEEAPHTTDRRARRWRRARLGSEEPSKEPSSPSAQLRDLDTHQVSDDLSETDISNEARDPQTLTDTTEEKRRNRLYELAMKMSEKETSSGEDQESEPKTESENQKESLSSEDNSQSVQEELKKKFSAVSLCNISTEVLKVINATEELIAGSTGPWESPQVPPDRQKGMFPRGTDQVRLDEQLTSLEENVYLAAGTVYGLETQLTELEDAARCIHSGTDETHLADLEDQVATAAAQVHHAELQISDIESRISALTIAGLNIAPCVRFTRRRDQKQRTQVQTIDTSRQQRRKLPAPPVKAEKIETSSVTTIKTFNHNFILQGSSTNRTKERKGTTKDLMEPALESAVMY

Tests used:
[1] = target: T1, MYO10-TPRN^BAIT (taperin fused to MYO10^HMM) (mouse, UniProt A2AI08 1-749); assay: NanoSPD
T1 sequence: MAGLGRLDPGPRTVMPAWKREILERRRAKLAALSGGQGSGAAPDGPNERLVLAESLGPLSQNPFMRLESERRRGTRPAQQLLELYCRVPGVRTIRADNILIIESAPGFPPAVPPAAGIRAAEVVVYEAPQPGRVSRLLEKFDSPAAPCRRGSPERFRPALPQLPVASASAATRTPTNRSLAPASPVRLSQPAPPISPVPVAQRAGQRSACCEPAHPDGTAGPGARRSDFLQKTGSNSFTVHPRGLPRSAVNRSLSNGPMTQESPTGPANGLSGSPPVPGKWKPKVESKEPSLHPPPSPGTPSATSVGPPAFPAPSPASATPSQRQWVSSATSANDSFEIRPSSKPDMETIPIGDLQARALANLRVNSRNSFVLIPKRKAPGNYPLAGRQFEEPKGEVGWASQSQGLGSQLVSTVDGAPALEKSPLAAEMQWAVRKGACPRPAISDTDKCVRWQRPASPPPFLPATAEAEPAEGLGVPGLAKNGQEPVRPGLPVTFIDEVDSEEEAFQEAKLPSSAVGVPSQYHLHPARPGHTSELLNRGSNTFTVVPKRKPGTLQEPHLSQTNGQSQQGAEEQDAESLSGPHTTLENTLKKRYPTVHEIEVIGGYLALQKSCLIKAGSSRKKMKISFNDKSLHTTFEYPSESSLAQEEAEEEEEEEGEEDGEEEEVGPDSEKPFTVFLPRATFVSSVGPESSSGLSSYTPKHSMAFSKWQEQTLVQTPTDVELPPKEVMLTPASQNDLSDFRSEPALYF

[2] = target: T2, MYO10-MYO7A(TAIL)^BAIT (EGFP-MYO10^HMM fused to the tail domain of MYO7A) (UniProt Q13402 858-2215); assay: NanoSPD
T2 sequence: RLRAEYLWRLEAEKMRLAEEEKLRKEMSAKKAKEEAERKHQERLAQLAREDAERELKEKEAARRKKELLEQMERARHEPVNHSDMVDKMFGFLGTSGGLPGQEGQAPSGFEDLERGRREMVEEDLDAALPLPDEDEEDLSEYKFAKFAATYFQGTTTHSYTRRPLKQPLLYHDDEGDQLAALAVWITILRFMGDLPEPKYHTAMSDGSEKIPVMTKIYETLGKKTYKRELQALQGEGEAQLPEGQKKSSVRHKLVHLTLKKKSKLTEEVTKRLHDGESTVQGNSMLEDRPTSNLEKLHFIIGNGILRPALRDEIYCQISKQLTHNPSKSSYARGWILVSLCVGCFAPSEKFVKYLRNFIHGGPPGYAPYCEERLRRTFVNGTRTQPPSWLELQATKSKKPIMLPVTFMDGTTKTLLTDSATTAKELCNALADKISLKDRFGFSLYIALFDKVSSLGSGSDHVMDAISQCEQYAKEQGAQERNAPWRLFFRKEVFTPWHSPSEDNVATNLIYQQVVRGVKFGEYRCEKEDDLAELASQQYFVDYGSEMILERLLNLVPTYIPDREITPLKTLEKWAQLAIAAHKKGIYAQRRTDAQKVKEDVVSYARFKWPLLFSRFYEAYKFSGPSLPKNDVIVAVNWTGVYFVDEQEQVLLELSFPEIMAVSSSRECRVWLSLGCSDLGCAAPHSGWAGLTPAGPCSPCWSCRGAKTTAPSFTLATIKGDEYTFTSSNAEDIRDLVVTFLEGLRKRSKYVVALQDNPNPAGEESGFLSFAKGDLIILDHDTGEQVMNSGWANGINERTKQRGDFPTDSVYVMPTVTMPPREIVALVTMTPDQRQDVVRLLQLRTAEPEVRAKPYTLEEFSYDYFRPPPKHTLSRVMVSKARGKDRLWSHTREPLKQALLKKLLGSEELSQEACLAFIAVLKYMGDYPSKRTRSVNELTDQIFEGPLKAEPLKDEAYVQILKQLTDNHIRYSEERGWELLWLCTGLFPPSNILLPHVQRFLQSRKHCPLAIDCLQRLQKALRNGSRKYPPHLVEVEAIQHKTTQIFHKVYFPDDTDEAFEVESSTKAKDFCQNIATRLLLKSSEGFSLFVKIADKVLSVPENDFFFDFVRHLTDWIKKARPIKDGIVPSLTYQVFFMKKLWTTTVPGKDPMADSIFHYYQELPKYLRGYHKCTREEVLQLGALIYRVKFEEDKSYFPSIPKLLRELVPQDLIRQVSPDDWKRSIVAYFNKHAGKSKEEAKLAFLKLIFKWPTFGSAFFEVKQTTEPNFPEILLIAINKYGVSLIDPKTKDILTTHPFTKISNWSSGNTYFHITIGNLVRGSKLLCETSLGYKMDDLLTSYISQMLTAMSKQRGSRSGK

| Binder | fold increase of prey fluorescence at filopodial tips against MYO10^(NO BAIT) [1] [fold] | fold increase of prey fluorescence at filopodial tips against MYO10^(NO BAIT) [2] [fold] |
| --- | --- | --- |
| B1 | 7 | – |
| B2 | – | 11.8 |
